Details in all cases: Filter binding: 50 mM Tris-HCl, 100 mM KCl, 50 mM NaCl, 5 mM MgCl2, pH 7.6, 15 min, footprint: 50 mM MOPS, 100 mM NaCl, 20 mM KCl, 2.5 mM MgCl2, 0.1 mM DTT
The target of data set [1] is T1, CsiR (Escherichia coli BW25113 (K-12)) (UniProt P37338).
T1 sequence: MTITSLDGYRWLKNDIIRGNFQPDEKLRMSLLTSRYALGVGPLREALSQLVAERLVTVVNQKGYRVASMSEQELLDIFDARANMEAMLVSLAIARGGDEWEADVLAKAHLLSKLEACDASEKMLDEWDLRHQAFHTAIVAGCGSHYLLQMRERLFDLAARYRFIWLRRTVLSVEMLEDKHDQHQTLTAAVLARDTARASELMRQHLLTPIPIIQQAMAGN
As to the kind of experiment: SPR.

In data set [2] the test system is CsiR (Escherichia coli BW25113 (K-12)). The data set can be described thus: SPR. (SPR reads the build-up and loss of mass on a sensor chip optically.)
The target of data set [3] is T1, CsiR (Escherichia coli BW25113 (K-12)). The data set can be described thus: hydroxyl radical footprinting.

Turning to “CTTTTGTGCGCATTTTTCAGAAATGTAGATATTTTTAGATTATGGCTACGAAATGAG (double strand) [csiD 5'-UTR/promoter PCR product MS177/MS178]”, the Kd (in general, the equilibrium constant for the complex coming apart) in data set [1] is 0.01 µM.

“csiD 5'-UTR/promoter PCR product MS177/MS178” showed a Kd in data set [2] of 0.01 µM.

“TATGAGATGTAGGGTGACATGGCGATGCTCATTTCGTAGCCATAATCTAAAAATATCTACATTTCTGAAAAATGCGCACAAAAGCGACATATTGTTTTCTTATTGTGATCAAAAGCAACA (double strand) [csiD promoter PCR product MS170/MS171]”: the binding entry in data set [3] is reported as “binds”.

For the origin of these results see article PMC6265302, “Widespread bacterial lysine degradation proceeding via glutarate and L-2-hydroxyglutarate” (Nature Communications, 2018).
